Source: patent US20240025984A1 (FLUX THERAPEUTICS, published 2024)

Columns and labels:
His-SynGAP-EC[1186-1277] = target: T1, His-SynGAP-EC[1186-1277] (Homo sapiens (Human), UniProt Q96PV0 956-1305); test: phage display panning, then polyclonal and monoclonal phage ELISA on plate-coated antigen (4 ug/ml)
T1 construct: Expressed in E. coli, purified on nickel resin, 15.75 kDa; also called SYNGAP1 fragment with N-terminal 6His tag
T1 sequence: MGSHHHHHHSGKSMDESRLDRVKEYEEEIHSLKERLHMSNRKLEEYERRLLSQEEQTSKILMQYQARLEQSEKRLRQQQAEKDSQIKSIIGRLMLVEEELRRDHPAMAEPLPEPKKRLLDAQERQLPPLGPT
Protocol: The concentration of the eluted phages was determined. First, the eluted phages were added to E. Coli TG1. TG1 was poured onto a plate and cultured upside down. The PFU was calculated based on the number of plaques (i.e. dead TG1) on the plate. The eluted phages were added to TG1 followed infection by helper phage and cultured. Phages were precipitated with PEG/NaCl and subsequently resuspended. The phages were screened using a polyclonal ELISA and a monoclonal ELISA. […] ([…]) or control buffer. The coated plate was washed, blocked, washed, and incubated with the amplified eluted phages. Subsequently the plate was washed and incubated with anti-phage-HRP antibody, washed, and incubated with TMB followed by HCL. The result readings were taken at 450 nm. The monoclonal phase ELISA was carried out according to the following. Single TG1 clones randomly selected from plates (described above) were cultured with helper phage. A total of 192 clones from round 3+96 clones from round 4+96 clones from round 5 were selected. The clones were centrifuged and the supernatant (i.e. the phages) were collected. […] The plate was washed, blocked, washed, incubated with the selected phages, washed, incubated with anti-phage-HRP antibody, washed, and incubated with TMB followed by HCL. The results were read of 450 nm.

[1] = target: Shank3-nanoluc-alfa-tag-fusion (Homo sapiens (Human), UniProt Q9BYB0 76-1806); test: cell-based or functional assay
[2] = target: T2, CSTB-nanoluc-alfa-tag-fusion; test: cell-based or functional assay
T2 chain: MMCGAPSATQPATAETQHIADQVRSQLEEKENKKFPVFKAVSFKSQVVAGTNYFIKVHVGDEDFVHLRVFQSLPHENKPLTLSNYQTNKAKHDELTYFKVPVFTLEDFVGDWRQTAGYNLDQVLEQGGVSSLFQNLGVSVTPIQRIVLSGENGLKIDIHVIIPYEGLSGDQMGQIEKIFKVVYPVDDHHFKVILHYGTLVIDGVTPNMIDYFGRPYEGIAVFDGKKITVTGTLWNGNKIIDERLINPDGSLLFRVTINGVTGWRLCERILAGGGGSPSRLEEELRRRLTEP

[3] = target: T3, PCBD1-nanoluc-alfa-tag-fusion; test: cell-based or functional assay
T3 chain: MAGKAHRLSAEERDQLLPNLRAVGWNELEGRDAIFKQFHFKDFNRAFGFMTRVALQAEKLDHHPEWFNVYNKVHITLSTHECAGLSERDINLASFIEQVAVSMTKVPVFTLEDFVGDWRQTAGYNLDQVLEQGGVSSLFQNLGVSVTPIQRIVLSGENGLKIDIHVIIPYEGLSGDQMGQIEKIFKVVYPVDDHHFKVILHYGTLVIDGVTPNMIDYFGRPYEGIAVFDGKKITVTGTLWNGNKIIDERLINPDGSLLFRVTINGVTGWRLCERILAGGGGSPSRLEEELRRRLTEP

[4] = target: T4, SYNGAP1-nanoluc-alfa-tag-fusion; test: cell-based or functional assay
T4 chain: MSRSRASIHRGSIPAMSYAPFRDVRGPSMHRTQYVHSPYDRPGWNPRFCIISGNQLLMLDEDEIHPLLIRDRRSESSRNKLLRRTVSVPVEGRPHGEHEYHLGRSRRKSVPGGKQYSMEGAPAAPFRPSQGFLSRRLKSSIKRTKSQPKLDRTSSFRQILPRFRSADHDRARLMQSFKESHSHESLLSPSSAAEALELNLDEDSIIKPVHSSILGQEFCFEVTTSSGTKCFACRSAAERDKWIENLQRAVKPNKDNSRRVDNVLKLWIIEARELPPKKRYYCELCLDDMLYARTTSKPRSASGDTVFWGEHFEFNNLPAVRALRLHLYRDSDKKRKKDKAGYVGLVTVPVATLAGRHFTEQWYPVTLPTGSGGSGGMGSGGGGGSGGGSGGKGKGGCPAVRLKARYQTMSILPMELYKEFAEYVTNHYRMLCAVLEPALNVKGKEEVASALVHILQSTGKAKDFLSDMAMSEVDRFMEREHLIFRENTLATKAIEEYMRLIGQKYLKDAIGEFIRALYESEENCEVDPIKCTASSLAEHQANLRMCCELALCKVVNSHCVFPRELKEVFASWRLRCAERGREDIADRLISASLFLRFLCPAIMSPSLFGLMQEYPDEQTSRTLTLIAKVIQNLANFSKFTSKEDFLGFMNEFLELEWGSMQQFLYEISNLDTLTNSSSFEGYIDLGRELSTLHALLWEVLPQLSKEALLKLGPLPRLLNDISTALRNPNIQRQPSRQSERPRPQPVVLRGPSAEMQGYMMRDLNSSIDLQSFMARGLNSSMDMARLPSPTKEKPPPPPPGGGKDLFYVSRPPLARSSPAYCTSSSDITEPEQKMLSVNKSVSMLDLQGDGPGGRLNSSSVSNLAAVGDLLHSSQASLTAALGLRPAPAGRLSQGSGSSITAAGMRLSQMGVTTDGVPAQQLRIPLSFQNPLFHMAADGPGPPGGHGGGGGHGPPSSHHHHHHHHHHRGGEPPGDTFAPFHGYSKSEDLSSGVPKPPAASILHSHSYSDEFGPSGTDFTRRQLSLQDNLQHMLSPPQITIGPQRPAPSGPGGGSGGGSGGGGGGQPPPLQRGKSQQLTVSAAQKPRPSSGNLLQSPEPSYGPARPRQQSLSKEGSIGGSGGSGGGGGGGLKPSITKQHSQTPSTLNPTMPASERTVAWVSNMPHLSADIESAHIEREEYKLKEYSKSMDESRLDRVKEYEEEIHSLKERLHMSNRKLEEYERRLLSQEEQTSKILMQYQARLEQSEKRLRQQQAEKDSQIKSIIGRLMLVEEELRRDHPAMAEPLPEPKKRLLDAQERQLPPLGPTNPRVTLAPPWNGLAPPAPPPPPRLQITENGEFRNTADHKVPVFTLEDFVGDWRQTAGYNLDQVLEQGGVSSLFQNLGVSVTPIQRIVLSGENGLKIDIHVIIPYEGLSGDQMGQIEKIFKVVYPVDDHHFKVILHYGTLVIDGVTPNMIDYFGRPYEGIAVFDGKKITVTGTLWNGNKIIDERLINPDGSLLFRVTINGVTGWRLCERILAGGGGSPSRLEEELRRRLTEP

[5] = target: T5, PYDC2-nanoluc-alfa-tag-fusion; test: cell-based or functional assay
T5 chain: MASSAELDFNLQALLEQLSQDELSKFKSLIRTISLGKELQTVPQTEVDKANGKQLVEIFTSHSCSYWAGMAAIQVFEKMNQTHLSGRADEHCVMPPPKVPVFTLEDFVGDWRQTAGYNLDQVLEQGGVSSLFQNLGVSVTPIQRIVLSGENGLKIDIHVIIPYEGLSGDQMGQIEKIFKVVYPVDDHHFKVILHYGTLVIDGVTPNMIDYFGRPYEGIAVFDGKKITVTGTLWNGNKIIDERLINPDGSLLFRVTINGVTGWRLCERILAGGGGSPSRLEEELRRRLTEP

B1: FLX00157 (VHH)
VHH: QVQLVESGGGLVQAGASLRLSCAASERTFGHYAMGWFRQAPGKEREFVATISWKGGTTGYAHSVKGRFTISRDSAKNMVYLQMNSLKPEDTAVYYCAARNTMSGSMSSSAYPYWGQGTQVTVSS
notes: Camelid VHH from a phage library; also called anti-SynGAP VHH FLX00157; VHH
binding result (His-SynGAP-EC[1186-1277]): binds

B2: FLX00154 (VHH)
VHH: QVQLVESGGGLVQPGGSLRLSCAASGFIFSSYQMAWVRQAPGKGLEWVADINTGGWNTYYADSVKGRFTISRDNAKNTLYLEMNSLKPEDTAVYYCAADRWMVAKIVGGDLDFDSWGQGTQVTVSS
notes: Camelid VHH from a phage library; also called anti-SynGAP VHH FLX00154; VHH
binding result (His-SynGAP-EC[1186-1277]): binds

B3: FLX00155 (VHH)
VHH: QVQLVESGGGLVQPGGSLRLSCAASGFAFGSYDMSWVRQAPGQGPEWVSAITPGGGGTFYAYYSDSVKGRFAISRDNAKNTLTLQMNSLKPDDTAMYYCAKNFYGNGGRGHGTQVTVSS
notes: Camelid VHH from a phage library; also called anti-SynGAP VHH FLX00155; VHH
binding result (His-SynGAP-EC[1186-1277]): binds

B4: FLX00156 (VHH)
VHH: QVQLVESGGGLVQPGGSLRLACAASGFTFGTHAMHWVRWAPGKGFEWVSTISSGGGGTRYADSVKGRFTISRDNAKNTVYLQMDNLKPEDTAVYYCNSPSNIANDNWGQGTQVTVSS
notes: Camelid VHH from a phage library; also called anti-SynGAP VHH FLX00156; VHH
binding result (His-SynGAP-EC[1186-1277]): binds

B5: FireflyLuciferase-P2A-a_alfatag_nano-Cezanne (other)
chain: MEDAKNIKKGPAPFYPLEDGTAGEQLHKAMKRYALVPGTIAFTDAHIEVDITYAEYFEMSVRLAEAMKRYGLNTNHRIVVCSENSLQFFMPVLGALFIGVAVAPANDIYNERELLNSMGISQPTVVFVSKKGLQKILNVQKKLPIIQKIIIMDSKTDYQGFQSMYTFVTSHLPPGFNEYDFVPESFDRDKTIALIMNSSGSTGLPKGVALPHRTACVRFSHARDPIFGNQIIPDTAILSVVPFHHGFGMFTTLGYLICGFRVVLMYRFEEELFLRSLQDYKIQSALLVPTLFSFFAKSTLIDKYDLSNLHEIASGGAPLSKEVGEAVAKRFHLPGIRQGYGLTETTSAILITPEGDDKPGAVGKVVPFFEAKVVDLDTGKTLGVNQRGELCVRGPMIMSGYVNNPEATNALIDKDGWLHSGDIAYWDEDEHFFIVDRLKSLIKYKGYQVAPAELESILLQHPNIFDAGVAGLPDDDAGELPAAVVVLEHGKTMTEKEIVDYVASQVTTAKKLRGGVVFVDEVPKGLTGKLDARKIREILIKAKKGGKIAVTRLKGSGATNFSLLKQAGDVEENPGPRSGTGSSGEVQLQESGGGLVQPGGSLRLSCTASGVTISALNAMAMGWYRQAPGERRVMVAAVSERGNAMYRESVQGRFTVTRDFTNKMVSLQMDNLKPEDTAVYYCHVLEDRVDSFHDYWGQGTQVTVSSGAPGSGPPSFSEGSGGSRTPEKGFSDREPTRPPRPILQRQDDIVQEKRLSRGISHASSSIVSLARSHVSSNGGGGGSNEHPLEMPICAFQLPDLTVYNEDFRSFIERDLIEQSMLVALEQAGRLNWWVSVDPTSQRLLPLATTGDGNCLLHAASLGMWGFHDRDLMLRKALYALMEKGVEKEALKRRWRWQQTQQNKESGLVYTEDEWQKEWNELIKLASSEPRMHLGTNGANCGGVESSEEPVYESLEEFHVFVLAHVLRRPIVVVADTMLRDSGGEAFAPIPFGGIYLPLEVPASQCHRSPLVLAYDQAHFSALVSMEQKENTKEQAVIPLTDSEYKLLPLHFAVDPGKGWEWGKDDSDNVRLASVILSLEVKLHLLHSYMNVKWIPLSSDAQAPLAQ
fold increase in SHANK3 protein expression relative to the control (NLuc signal normalised to firefly luciferase signal) [1]: 2.4 fold | fold increase in CSTB protein expression (NLuc signal normalised to firefly luciferase signal) [2]: 1.61 fold | fold increase in PCBD1 protein expression (NLuc signal normalised to firefly luciferase signal) [3]: 1.13 fold | fold increase in SYNGAP1 protein expression relative to the control (NLuc signal normalised to firefly luciferase signal) [4]: 3.1 fold | fold increase in PYDC2 protein expression (NLuc signal normalised to firefly luciferase signal) [5]: 2.64 fold
